Numbering of substitutions follows the chain as printed.
Legend:
[1] = target: T1, wild-type human prolactin receptor (PRLR), isoform 1 (human, UniProt P16471 25-622); assay: cell-based or functional assay
T1 sequence: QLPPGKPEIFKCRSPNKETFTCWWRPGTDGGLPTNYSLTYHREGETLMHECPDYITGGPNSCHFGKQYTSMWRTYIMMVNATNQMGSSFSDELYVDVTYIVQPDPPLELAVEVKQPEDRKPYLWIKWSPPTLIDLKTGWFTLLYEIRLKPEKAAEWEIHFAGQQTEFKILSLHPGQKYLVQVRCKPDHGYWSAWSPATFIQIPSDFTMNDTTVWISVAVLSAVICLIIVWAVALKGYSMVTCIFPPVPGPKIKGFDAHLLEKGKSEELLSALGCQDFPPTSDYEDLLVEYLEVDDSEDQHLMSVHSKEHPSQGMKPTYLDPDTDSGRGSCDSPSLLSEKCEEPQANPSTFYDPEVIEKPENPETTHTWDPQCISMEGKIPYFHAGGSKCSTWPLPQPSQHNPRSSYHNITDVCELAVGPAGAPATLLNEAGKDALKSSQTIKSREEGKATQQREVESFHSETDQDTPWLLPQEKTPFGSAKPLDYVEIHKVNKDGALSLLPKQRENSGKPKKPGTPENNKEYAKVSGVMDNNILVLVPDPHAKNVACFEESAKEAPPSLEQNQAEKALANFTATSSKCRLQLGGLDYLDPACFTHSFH

[2] = target: T2, human prolactin receptor mutant I76V (human, UniProt P16471 25-622); assay: cell-based or functional assay
T2 sequence: T1 sequence with I76V

[3] = target: T1, wild-type human prolactin receptor …; assay: radioligand competition ([125I]-hPRL vs unlabeled hPRL) on homogenates of stably transfected HEK 293 cells, Scatchard analysis
Experimental: (§1) Binding affinities of mutated PRLR for hPRL were determined using cell homogenates of stably transfected HEK 293, following a procedure previously described (KINET et al., J Biol Chem, 274, 26033-26043, 1999). Briefly, recombinant hPRL, produced in bacteria E. coli using the pT7L expression vector, and purified as described previously (PARIS et al., Biotechnol Appl Biochem, 12, 436-449, 1990), was iodinated using the Iodogen method, and its specific activity was in the range of 4-5 μCi/μg. Binding assays were performed overnight at room temperature using 150-300 μg cell homogenate protein in the presence of 20,000-30,000 cpm [¹²⁵I]-hPRL and increasing concentrations of unlabeled hPRL (competitor). Scatchard analysis was performed to determine the binding affinity of mutated PRLR and the number of PRLR per cell in stable clones or populations.

[4] = target: T2, human prolactin receptor mutant I76V; assay: as above
Experimental: as §1

fold stimulation of LHRE-luciferase activity induced by PRL (stable HEK 293 clones, 1 ug/ml PRL) [1]: 8 fold
fold induction of LHRE-luciferase activity by PRL (transient transfection, HEK 293) [2]: 5 fold
Kd [3]: 0.64 nM
Kd [4]: 0.44 nM
B1: recombinant human prolactin (hPRL) (ligand, UniProt P01236 29-227, looked up)
chain: LPICPGGAARCQVTLRDLFDRAVVLSHYIHNLSSEMFSEFDKRYTHGRGFITKAINSCHTSSLATPEDKEQAQQMNQKDFLSLIVSILRSWNEPLYHLVTEVRGMQEAPEAILSKAVEIEEQTKRLLEGMELIVSQVHPETKENEIYPVWSGLPSLQMADEESRLSAYYNLLHCLRRDSHKIDNYLKLLKCRIIHNNNC
modifications: tracer form iodinated (125I, Iodogen method); unlabeled hPRL used as competitor
notes: Recombinant hPRL from bacteria; also called WT hPRL; [125I]-hPRL

Source: US20100240033A1 (INSTITUT NATIONAL DE LA SANTE ET DE LA RECHERCHE MEDICAL …, published 2010)
